As a reminder, the Kd is the equilibrium constant for the complex coming apart.

Our source for the Kd and IC50 (nM), myostatin-induced luciferase, C2C12 pMARE-luc values is patent US20150175687A1.

Test [1] concerns the target recombinant mature myostatin (human) (UniProt O14793). Nature of the test: BIAcore, myostatin immobilized. Background: Surface plasmon resonance follows binding to a sensor surface in real time, without labels.
The target is the same in test [2].

recombinant mature myostatin (human), sequence (O14793 267-375): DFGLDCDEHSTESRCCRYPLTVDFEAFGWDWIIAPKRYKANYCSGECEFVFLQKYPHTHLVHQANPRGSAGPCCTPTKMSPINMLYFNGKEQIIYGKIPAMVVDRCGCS

B1: recombinant human activin receptor IIB/Fc chimera (Fc fusion)
chain: SGRGEAETRECIYYNANWELERTNQSGLERCEGEQDKRLHCYASWRNSSGTIELVKKGCWLDDFNCYDRQECVATEENPQVYFCCCEGNFCNERFTHLPEAGGPEVTYEPPPTAPT
B1: the equilibrium dissociation constant (Kd) in test [1] is 7 nM. Further, the IC50 (nM), myostatin-induced luciferase, C2C12 pMARE-luc in test [2] came to 83 nM.
